Values quoted from earlier work as cited in PMC5331060.
Like-named read-outs stand apart in the source and are kept apart here.

Legend:
[1] = target: beta clamp (Escherichia coli) (UniProt P0A988)
[2] = target: beta clamp (Escherichia coli) (UniProt P0A988); remark: listed apart in the source

UniProt P0A988, sequence (P0A988 whole entry): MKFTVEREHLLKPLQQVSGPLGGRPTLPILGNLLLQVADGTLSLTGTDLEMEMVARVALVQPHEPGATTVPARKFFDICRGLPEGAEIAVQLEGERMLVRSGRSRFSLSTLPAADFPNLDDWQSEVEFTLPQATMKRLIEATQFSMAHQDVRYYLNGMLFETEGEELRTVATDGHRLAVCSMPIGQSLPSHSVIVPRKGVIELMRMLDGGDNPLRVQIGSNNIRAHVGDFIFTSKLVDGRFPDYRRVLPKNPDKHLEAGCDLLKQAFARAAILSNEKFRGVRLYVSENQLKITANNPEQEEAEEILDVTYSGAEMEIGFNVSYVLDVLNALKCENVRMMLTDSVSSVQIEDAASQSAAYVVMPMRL

| Substance | Kd [1] [nM] | Kd [2] [nM] |
| --- | --- | --- |
| DinB (Pol IV) (from UniProt Q47155) | 460 |  |
| Pol III alpha (from UniProt P10443) |  | 108 |
